B1: OR4K15 (parent)
chain: GUUAACGGUCAUAGGCCAUGGAAACUAGGAGCACCAUUUCGCUGCCAGUGAAGAAAUGAACAAAGAAAAUCUGGGCCAGGCAGGCAUCAAAAGAAAUAGUCUUGCGCUCAACCAGAAAGUCUGUAAUCAUUUUAAGGGUA

The values that follow come from the RNAGym collection of RNA variant scans (doi:10.7554/elife.90254).

The series covers variants of B1. In words: self-cleavage, relative activity (ratio to wild type); higher = more cleavage; in vitro, sequencing; the parent is a self-cleaving ribozyme.
As to A23U A86G, the self-cleavage came out at 0.48. Consider A23U A86U, for which the self-cleavage was found to be 1.32. The same measure for A23G A95U: 2.26.

Regarding A23G A64U, the self-cleavage turned out to be 1.2. The same measure for A23G A64G: 0.58; for A24U A54G: 1.46. Consider A23G A129C, for which the self-cleavage was determined as 0.82. A23G A129G: the self-cleavage worked out at 0.35. In the case of A24G A125C, the self-cleavage is 0.4. The same measure for A23G A126G: 0.76; for C25U U72A: 0.28; for A24U A98G: 0.45. Next, C25U U120A: 2.95; A23G G115A: 0.05; A24G U132C: 1.31. For the variant A24G U132A, the self-cleavage amounted to 0.48. Consider A24G A68U, for which the self-cleavage is 0.87.

As for A24C A118C, the self-cleavage was 0.84. A24C G123A: the self-cleavage amounted to 1.91.

Turning to C25U U57C, the self-cleavage was 1.42.

A24G C34U: the self-cleavage was determined as 1.69. The same measure for A24C A69G: 1.24; for A24C U120C: 1.13. The same measure for A24G A30U: 1.29. As for U26A A47G, the self-cleavage came out at 0.94. Next, C25U A114G: 0.37; C25U A55G: 1.72; A23U U87A: 1.36. On to A23U U87C, for which the self-cleavage is 1.08.

Turning to A23U U124C, the self-cleavage amounted to 1.64.

Turning to A24G U49G, the self-cleavage is 0.9. Next, A24G U49A: 1.37. In the case of A24G U49C, the self-cleavage stood at 1.37. The same measure for A24C A62C: 2.03. As for A24U A86G, the self-cleavage was 1.8.

For the variant C25U U127C, the self-cleavage is 0.57. In the case of A24G G58U, the self-cleavage came to 1.92. With A23G G84U, the self-cleavage is 0.21.

Consider C25A U38C, for which the self-cleavage came out at 1.05.

For the variant A24U U102C, the self-cleavage was 1.26.

Consider A23U U100C, for which the self-cleavage worked out at 2.74.

With A23G G80U, the self-cleavage was 0.23. Next, A24C A91G: 1.24; A24G U122G: 2.31. Next, C25U A63G: 0.37; A24G A55G: 0.67; U26A A54G: 1.95. The same measure for A24G U97C: 0.1; for C25U A91U: 1.13; for A23G G119A: 1.38. As to A23U A117G, the self-cleavage was found to be 1.14.

Consider A24C C40A, for which the self-cleavage came out at 1.99. The same measure for A24C A66U: 1.03. For A24U U26A, the self-cleavage turned out to be 1.57. With A24U U26C, the self-cleavage was found to be 2.46.

In the case of A24G G73A, the self-cleavage amounted to 0.29. On to A24C A59U, for which the self-cleavage was found to be 1.57. Regarding A24G A135G, the self-cleavage amounted to 1.67. Next, A24G A135U: 1.33; A24G G83A: 0.98; A23U G93A: 1.85. Next, A23G A111U: 0.23. For the variant A23G A111C, the self-cleavage was determined as 0. Next, A23G A111G: 0.05.

On to C25G U108C, for which the self-cleavage is 0.03. For the variant A24G A96G, the self-cleavage came out at 1.2. The same measure for C25U U70C: 0.35. For the variant C25U C109U, the self-cleavage amounted to 0.48. On to A23U A129U, for which the self-cleavage was found to be 0.79.

Turning to A24C A98G, the self-cleavage was determined as 0.56. Take A24G A140U: the self-cleavage came out at 0.89.

Take A24G A140G: the self-cleavage is 1.4. The same measure for A24G C46U: 0.73. In the case of A23G A125G, the self-cleavage amounted to 0.4. For the variant A24G A129G, the self-cleavage was 1.15. Consider A24G U103A, for which the self-cleavage was 0.42.

For A24G U103C, the self-cleavage was determined as 0.32.

In the case of A24G U39C, the self-cleavage is 1.35. Next, A23G A82G: 0.57; C25A U122C: 0.72; A23G U139C: 1.26.

With A23G A117G, the self-cleavage was found to be 1.2. Next, C25U A111G: 0.09. Next, A24C A63G: 1.94; U26A A98G: 0.3.

A23G A90G: the self-cleavage turned out to be 0.8. Regarding C25U A66C, the self-cleavage came to 1.33. The same measure for A24G A59U: 0.51. The same measure for U26A C34U: 1.99; for A23G C61G: 1.12. The same measure for A23G C61A: 1.45; for A23G C61U: 1.24. For A24C A33G, the self-cleavage came out at 1.14.

Regarding A24G C128U, the self-cleavage was 0.76. For the variant A23G U108A, the self-cleavage was found to be 0.02. In the case of C25A A56G, the self-cleavage amounted to 1.41. The same measure for A23U G136A: 0.85; for U26A A92G: 0.89.

As to A24G U57G, the self-cleavage was 0.4. Next, A23U G137A: 1.46; A23G U120A: 0.47. Next, A23G U120G: 1.48. In the case of A23G U120C, the self-cleavage was determined as 0.96. Turning to A24G U26A, the self-cleavage amounted to 0.98. Turning to A23G G53A, the self-cleavage was 1.7. As to A24C U70G, the self-cleavage was 0.73.

Consider A23U U39C, for which the self-cleavage stood at 1.27. The same measure for A23G A110U: 1.25; for A23G A110G: 0.11; for A23G A91G: 0.7.

As for A23G A91C, the self-cleavage was found to be 1.49. The same measure for C25U A62G: 0.59.

As to A24G A33U, the self-cleavage is 1.73. Next, A24G A33G: 0.85. Next, C25A A36G: 1.03; A23U A54G: 1.59; A23U A54U: 1.61. As for A24U U87A, the self-cleavage amounted to 1.8. For the variant A24G A126G, the self-cleavage stood at 0.83. Next, A24C A47G: 1.46; A24G U133A: 1.18; A24G U133C: 1.14. For A24C U130C, the self-cleavage turned out to be 0.42.

As for A24G A67U, the self-cleavage came to 1.32. The same measure for A24U A82G: 0.41; for A23U A52G: 1.2.

For the variant A24G A110G, the self-cleavage came out at 0.17. The same measure for A24G A110C: 0.55; for A23G U97C: 0.8; for A23G U97A: 1.48. As for A23U A135G, the self-cleavage turned out to be 1.35. In the case of A23U A30U, the self-cleavage amounted to 0.26. Next, A23U A30G: 1.09; A24G A47G: 0.73; A23G A98U: 0.92. For the variant A24C U133A, the self-cleavage amounted to 1.76. For the variant A23U U97G, the self-cleavage stood at 1.35. As to A24G U127C, the self-cleavage came to 0.74.

Take A24G C105A: the self-cleavage is 0.02. The same measure for A24C A90G: 0.69. With A24G A54G, the self-cleavage is 1.12. The same measure for A24U U57C: 0.73; for A23G U102C: 1.87; for A23G U43C: 1.38. The same measure for A24G A62G: 1.27. Turning to A24G A62U, the self-cleavage was 1.12. Next, A23U G115U: 0.21; A23U A27G: 1.16; A24C A114G: 0.97. Take U26A A91G: the self-cleavage stood at 1.38.

Regarding A23U G29A, the self-cleavage worked out at 2.77. In the case of A23G G75A, the self-cleavage was 0.19.

Turning to A23G A62G, the self-cleavage is 0.87. Next, A23G A62U: 1.09. For the variant A23G U131C, the self-cleavage worked out at 0.45. A23G G74A: the self-cleavage was determined as 0.14.

Take A23G U87A: the self-cleavage amounted to 0.94. The same measure for A23G U87C: 0.61; for A24C U132C: 1.46.

With A23G U37C, the self-cleavage is 1.03. The same measure for A23G A118G: 0.75.

As for A23G A118U, the self-cleavage worked out at 0.78. Next, C25U A89G: 1.27.

Consider A24G A98C, for which the self-cleavage is 1.76. The same measure for C25U U132C: 1.36; for C25U A135G: 1.44; for A24G A134G: 0.94.
